IntAct's records for PubMed 16443932

Target: cdc42_human CDC42 (UniProt P60953)
Sequence of UniProt P60953 (P60953 whole entry, looked up): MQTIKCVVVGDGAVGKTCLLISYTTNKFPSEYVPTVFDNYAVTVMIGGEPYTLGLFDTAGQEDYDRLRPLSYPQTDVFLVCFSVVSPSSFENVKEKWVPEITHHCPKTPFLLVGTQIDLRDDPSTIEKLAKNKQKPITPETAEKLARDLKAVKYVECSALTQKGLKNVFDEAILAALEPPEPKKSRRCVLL

Phospholipid-transporting ATPase ABCA1 (Homo sapiens), O95477 K939M
effect of a mutation on the interaction: disrupting interaction strength
